This note sets out measurements from patent US20070092942A1 (published 2007).

Experiment [1] has as its target T1, HA-tagged Ub-vinylmethyl ester (UniProt P0CG47 1-75).
T1 construct: also called HAUbVME; HA-UbVME
The experiment is described as follows: 1 uM enzyme with 2 uM HAUbVME, SDS-PAGE silver stain and anti-HA immunoblot.

In experiment [2] the target is T1, HA-tagged Ub-vinylmethyl ester. The experiment is described as follows: HAUbVME labelling, SDS-PAGE and anti-HA immunoblot.

B1: EBV205 (enzyme)
chain: MSNGDWGQSQRTRGTGPVRGIRTMDVNAPGGGSGGSALRILGTASCNQAHCKFGRFAGIQCVSNCVLYLVKSFLAGRPLTSRPELDEVLDEGARLDALMRQSGILKGHEMAQLTDVPSSVVLRGGGRVHIYRSAEIFGLVLFPAQIANSAVVQSLAEVLHGSYNGVAQFILYICDIYAGAIIIETDGSFYLFDPHCQKDAAPGTP
notes: range 1-205; not shown: N-terminal His-tag from pET28
Regarding B1, the binding result in experiment [1] is “binds”.

B2: EBV205 C61A (enzyme)
chain: MSNGDWGQSQRTRGTGPVRGIRTMDVNAPGGGSGGSALRILGTASCNQAHCKFGRFAGIQAVSNCVLYLVKSFLAGRPLTSRPELDEVLDEGARLDALMRQSGILKGHEMAQLTDVPSSVVLRGGGRVHIYRSAEIFGLVLFPAQIANSAVVQSLAEVLHGSYNGVAQFILYICDIYAGAIIIETDGSFYLFDPHCQKDAAPGTP
notes: range 1-205; also called EBV205 active site mutant (C61A); not shown: N-terminal His-tag from pET28
Consider B2, for which, in experiment [2], the binding result is “no binding (tested: 2 uM HAUbVME, 1 uM enzyme)”.
